In article PMC5389614:
Changes are numbered by the printed parent chain. Like-named read-outs stand apart in the source and are kept apart here.

T1: AgeI wt (UniProt Q9KHV6 1-278)
T1 sequence: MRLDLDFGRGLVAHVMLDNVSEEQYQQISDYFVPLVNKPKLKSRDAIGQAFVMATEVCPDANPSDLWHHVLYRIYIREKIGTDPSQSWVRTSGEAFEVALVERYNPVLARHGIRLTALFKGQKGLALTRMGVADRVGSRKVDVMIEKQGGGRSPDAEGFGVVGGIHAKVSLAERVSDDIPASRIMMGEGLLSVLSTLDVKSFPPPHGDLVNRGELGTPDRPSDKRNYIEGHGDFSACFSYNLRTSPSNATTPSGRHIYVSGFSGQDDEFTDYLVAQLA

T2: AgeI D223A (UniProt Q9KHV6 1-278, D223A)
T2 sequence: T1 sequence with D223A

T3: AgeI D177A (UniProt Q9KHV6 1-278, D177A)
T3 sequence: T1 sequence with D177A

T4: AgeI S138A (UniProt Q9KHV6 1-278, S138A)
T4 sequence: T1 sequence with S138A

T5: AgeI D142A (UniProt Q9KHV6 1-278, D142A)
T5 sequence: T1 sequence with D142A

T6: AgeI Q86A (UniProt Q9KHV6 1-278, Q86A)
T6 sequence: T1 sequence with Q86A

T7: AgeI D178A (UniProt Q9KHV6 1-278, D178A)
T7 sequence: T1 sequence with D178A

B1: SP13 (dsDNA)
DNA 1: TTCGACCGGTCGA
DNA 2: TTCGACCGGTCGA
B2: SP (specific) (dsDNA)
DNA 1: AGACCCACGCTCACCGGTTCCAGATTTATC
DNA 2: GATAAATCTGGAACCGGTGAGCGTGGGTCT
B3: NC (non-canonical) (dsDNA)
DNA 1: B2 DNA 1 with T18A
DNA 2: B2 DNA 2 with A13T
B4: SP11 (dsDNA)
DNA 1: TCGACCGGTCG
DNA 2: TCGACCGGTCG

How the values were obtained:
AgeI wt [1] = target: T1, AgeI wt; assay: X-ray crystallography
AgeI D223A = target: T2, AgeI D223A; assay: EMSA
AgeI D177A = target: T3, AgeI D177A; assay: EMSA
AgeI S138A = target: T4, AgeI S138A; assay: EMSA
AgeI D142A = target: T5, AgeI D142A; assay: EMSA
AgeI Q86A = target: T6, AgeI Q86A; assay: EMSA
AgeI wt [2] = target: T1, AgeI wt; assay: EMSA
AgeI D178A = target: T7, AgeI D178A; assay: EMSA
AgeI wt [3] = target: T1, AgeI wt; assay: X-ray crystallography; remark: listed apart in the source

Row | Binder | Kd (AgeI D223A) | Kd (AgeI D177A) | Kd (AgeI D178A) | also measured
1 | B1 |  |  |  | binding result (AgeI wt [1]): binds
2 | B2 | 1.2 ± 0.4 nM | 19.5 ± 5.6 nM | 1 ± 0.3 nM | Kd (AgeI S138A): 1.2 ± 0.2 nM; Kd (AgeI D142A): 2.4 ± 0.8 nM; Kd (AgeI Q86A): 4.6 ± 1.4 nM; Kd (AgeI wt [2]): 0.9 ± 0.2 nM
3 | B3 | ~5 nM | 14.7 ± 3.1 nM | ~5 nM | 
4 | B4 |  |  |  | binding result (AgeI wt [3]): binds
